US20230124851A1 (INHIBRX LNC, published 2023)
Substitutions are numbered along the chain they refer to.

T1: human B7H3 (CD276) on the cell surface (human, UniProt Q5ZPR3 29-534)
T1 construct: B7H3 on A375 and other B7H3-positive or transfected cells
T1 sequence: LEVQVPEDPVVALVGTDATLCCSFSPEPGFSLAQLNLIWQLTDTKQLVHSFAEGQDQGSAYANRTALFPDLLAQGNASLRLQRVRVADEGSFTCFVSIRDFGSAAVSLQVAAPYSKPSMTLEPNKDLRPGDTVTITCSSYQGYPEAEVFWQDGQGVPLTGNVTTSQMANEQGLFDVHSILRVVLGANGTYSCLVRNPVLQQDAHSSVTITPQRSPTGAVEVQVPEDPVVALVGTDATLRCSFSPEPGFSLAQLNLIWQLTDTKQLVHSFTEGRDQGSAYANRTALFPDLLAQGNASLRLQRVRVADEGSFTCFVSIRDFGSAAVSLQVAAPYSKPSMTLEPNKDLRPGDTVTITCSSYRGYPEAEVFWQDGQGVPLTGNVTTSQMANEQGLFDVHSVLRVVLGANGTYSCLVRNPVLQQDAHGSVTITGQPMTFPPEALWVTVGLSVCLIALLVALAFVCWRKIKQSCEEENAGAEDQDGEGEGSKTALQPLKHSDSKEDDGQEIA

B1: cx4136 (bispecific antibody)
chain 1: EVQLVESGGGEVQPGGSLRLSCAASGSTFSSYHMSWFRQAPGKQREPVATSHHGGTTNYAGSVKGRFTISRDNAKNTVYLQMNTLRAEDTAVYYCKADHGYQGRGYWGQGTLVTVKPDKTHTCPPCPAPGGPSVFLFPPKPKDTLMISRTPEVTCVVVDVSHEDPEVKFNWYVDGVEVHNAKTKPREEQYNSTYRVVSVLTVLHQDWLNGKEYKCKVSNKALPAPIEKTISKAKGQPREPQVYTLPPCRDELTKNQVSLWCLVKGFYPSDIAVEWESNGQPENNYKTTPPVLDSDGSFFLYSKLTVDKSRWQQGNVFSCSVMHEALHNHYTQKSLSLSPTGGGGGSGGGGGSGGGGGSEVQLVESGGGLVQPGGSLRLSCAASGFTFNTYAMNWVRQAPGKCLEWVARIRSKYNNYATYYADSVKGRFTISRDDAKNTLYLQMSSLRAEDTAVYYCVRHGNFGNSYVSWFAYWGQGTLVTVKPEVQLVESGGGEVQPGGSLRLSCAASGSTFSSYHMSWFRQAPGKQREPVATSHHGGTTNYAGSVKGRFTISRDNAKNTVYLQMNTLRAEDTAVYYCKADHGYQGRGYWGQGTLVTVKP
chain 2: DKTHTCPPCPAPGGPSVFLFPPKPKDTLMISRTPEVTCVVVDVSHEDPEVKFNWYVDGVEVHNAKTKPREEQYNSTYRVVSVLTVLHQDWLNGKEYKCKVSNKALPAPIEKTISKAKGQPREPQVCTLPPSRDELTKNQVSLSCAVKGFYPSDIAVEWESNGQPENNYKTTPPVLDSDGSFFLVSKLTVDKSRWQQGNVFSCSVMHEALHNRYTQKSLSLSPTGGGGGSGGGGGSGGGGGSQAVVTQEPSLTVSPGGTVTLTCGSSTGAVTTSNYANWVQQKPGQAFRGLIGGTNKRAPGVPARFSGSLLGGKAALTISGAQPEDEADYYCALWYSNHWVFGCGTKLTVL
B2: cx4137 (bispecific antibody)
chain 1: B1 chain 1
chain 2: DKTHTCPPCPAPGGPSVFLFPPKPKDTLMISRTPEVTCVVVDVSHEDPEVKFNWYVDGVEVHNAKTKPREEQYNSTYRVVSVLTVLHQDWLNGKEYKCKVSNKALPAPIEKTISKAKGQPREPQVCTLPPSRDELTKNQVSLSCAVKGFYPSDIAVEWESNGQPENNYKTTPPVLDSDGSFFLVSKLTVDKSRWQQGNVFSCSVMHEALHNRYTQKSLSLSPTGGGGGSGGGGGSGGGGGSQAVVTQEPSLTVSPGGTVTLTCGSSTGAVTTSNYANWVQQKPGQAFRGLIGGTNKRAPGVPARFSGSLLGGKAALTISGAQPEDEADYYCALWYSNHWVFGCGTKLTVLEVQLLESGGGEVQPGGSLRLSCAASGFSFSINAMGWYRQAPGKRREFVAAIESGRNTVYAESVKGRFTISRDNAKNTVYLQMSSLRAEDTAVYYCGLLKGNRVVSPSVAYWGQGTLVTVKP
notes: chain 2 ends in the 4-1BB sdAb RH3v5-1
B3: cx4641 (bispecific antibody)
chain 1: EVQLVESGGGEVQPGGSLRLSCAASGSTFSSYHMSWFRQAPGKQREPVATSHHGGTTNYAGSVKGRFTISRDNAKNTVYLQMNTLRAEDTAVYYCKADHGYQGRGYWGQGTLVTVKPDKTHTCPPCPAPGGPSVFLFPPKPKDTLMISRTPEVTCVVVDVSHEDPEVKFNWYVDGVEVHNAKTKPREEQYNSTYRVVSVLTVLHQDWLNGKEYKCKVSNKALPAPIEKTISKAKGQPREPQVYTLPPCRDELTKNQVSLWCLVKGFYPSDIAVEWESNGQPENNYKTTPPVLDSDGSFFLYSKLTVDKSRWQQGNVFSCSVMHEALHNHYTQKSLSLSPTGGSGGGGIEPDIGGSGGSEVQLVESGGGLVQPGGSLRLSCAASGFTFNTYAMNWVRQAPGKCLEWVARIRSKYNNYATYYADSVKGRFTISRDDAKNTLYLQMSSLRAEDTAVYYCVRHGNFGNSYVSWFAYWGQGTLVTVKPQLQLQESGGGLVQAGDSLRLSCAASGFSFGSNVMMWVRQAPGKGPEWVSTIYSSGTGTFYADSVKGRFTISRNNAKNTLYLQMNSLKPDDTAVYYCATSGPVRGWGPRSQGTLVTVKP
chain 2: B1 chain 2 with G226S, S229G, G231I, G232E, G233P, G234D, S235I, G238S
notes: Printed composition is the same as cx4645
B4: cx3855 (bispecific antibody)
chain 1: B1 chain 1 with G343S, S346G, G348I, G349E, G350P, G351D, S352I, G355S
chain 2: B2 chain 2 with G226S, S229G, G231I, G232E, G233P, G234D, S235I, G238S
notes: chain 2 ends in the 4-1BB sdAb RH3v5-1; Printed composition is the same as cx4904
B5: cx3090 (bispecific antibody, not shown: a dimerising Fc or GST)
chain 1: EVQLVESGGGEVQPGGSLRLSCAASGSTFSSYHMSWFRQAPGKQREPVATSHHGGTTNYAGSVKGRFTISRDNAKNTVYLQMNTLRAEDTAVYYCKADHGYQGRGYWGQGTLVTVKPGGSGGGGIEPDIGGSGGSEVQLVESGGGLVQPGGSLRLSCAASGFTFNTYAMNWVRQAPGKCLEWVARIRSKYNNYATYYADSVKGRFTISRDDAKNTLYLQMSSLRAEDTAVYYCVRHGNFGNSYVSWFAYWGQGTLVTVKPEVQLVESGGGEVQPGGSLRLSCAPSERTFSTYTMGWFRQAPGKEREFVAVVNWGGGSKYYAESVKGRFTISRDNAKNTVYLQMSSLRAEDTAVYYCAAGGAYSGPYYDTRQYTYWGQGTLVTVKP
chain 2: GGSGGGGIEPDIGGSGGSQAVVTQEPSLTVSPGGTVTLTCGSSTGAVTTSNYANWVQQKPGQAFRGLIGGTNKRAPGVPARFSGSLLGGKAALTISGAQPEDEADYYCALWYSNHWVFGCGTKLTVLEVQLLESGGGEVQPGGSLRLSCAASGFSFSINAMGWYRQAPGKRREFVAAIESGRNTVYAESVKGRFTISRDNAKNTVYLQMSSLRAEDTAVYYCGLLKGNRVVSPSVAYWGQGTLVTVKP
notes: as for B2
B6: cx3243 (bispecific antibody, not shown: a dimerising Fc or GST)
chain 1: B5 chain 1 with S120G, G123S, I125G, E126G, P127G, D128G, I129S, S132G
chain 2: B5 chain 2 with S3G, G6S, I8G, E9G, P10G, D11G, I12S, S15G
notes: as for B2
B7: cx3072 (bispecific antibody)
chain 1: EVQLVESGGGEVQPGGSLRLSCAASGSTFSSYHMSWFRQAPGKQREPVATSHHGGTTNYAGSVKGRFTISRDNAKNTVYLQMNTLRAEDTAVYYCKADHGYQGRGYWGQGTLVTVKPPGGGGDKTHTCPPCPAPELLGGPSVFLFPPKPKDTLMISRTPEVTCVVVDVSHEDPEVKFNWYVDGVEVHNAKTKPREEQYNSTYRVVSVLTVLHQDWLNGKEYKCKVSNKALPAPIEKTISKAKGQPREPQVYTLPPCRDELTKNQVSLWCLVKGFYPSDIAVEWESNGQPENNYKTTPPVLDSDGSFFLYSKLTVDKSRWQQGNVFSCSVMHEALHNHYTQKSLSLSPTGGGGGSGGGGGSGGGGGSEVQLVESGGGLVQPGGSLRLSCAASGFTFNTYAMNWVRQAPGKCLEWVARIRSKYNNYATYYADSVKGRFTISRDDAKNTLYLQMSSLRAEDTAVYYCVRHGNFGNSYVSWFAYWGQGTLVTVKPGGGGEVQLVESGGGEVQPGGSLRLSCAPSERTFSTYTMGWFRQAPGKEREFVAVVNWGGGSKYYAESVKGRFTISRDNAKNTVYLQMSSLRAEDTAVYYCAAGGAYSGPYYDTRQYTYWGQGTLVTVKP
chain 2: not shown
notes: IgG1-Hole 294, 298 or 446; VH13 237; VL10 265)

What follows are binders tested against T2, CD3 on the surface of human T cells (human, UniProt P07766 23-207) (assay: flow cytometry on primary human T cells; column head 'Affinity CD3').
T2 construct: whole, on cells; Part of the CD3/TCR complex on cells; also called CD3 epsilon
T2 sequence (P07766 23-207): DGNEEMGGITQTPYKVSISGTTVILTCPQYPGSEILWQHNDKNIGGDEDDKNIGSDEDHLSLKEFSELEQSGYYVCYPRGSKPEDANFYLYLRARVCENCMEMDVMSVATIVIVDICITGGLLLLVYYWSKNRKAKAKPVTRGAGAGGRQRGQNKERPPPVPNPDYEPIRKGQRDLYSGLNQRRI
Method: (§1) Binding of exemplary B7H3-targeting constrained CD3 engaging constructs set forth in Table E3 to CD3 on the surface of primary T cells or B7H3-expressing cells (A375) was assessed by flow cytometry. The T cells were primary T-cells that were negatively enriched from PBMCs isolated from healthy human donor peripheral blood leukopaks. Bound construct was detected with fluorophore-conjugated secondary antibodies specific for the human Fc (anti-human IgG APC secondary antibody) and binding was measured by flow cytometry. Cells incubated with secondary antibody only served as negative controls. Binding was compared to Dual-affinity Re-targeting Antibody (DART)-monomeric Fc format targeting B7H3 and CD3 (DART-Fc B7H3xCD3; see e.g. WO2017030926A1).
(§2) Table E4 summarizes the affinity of exemplary molecules for B7H3 or CD3, as determined from flow cytometry, in these studies.

Q: B1 was tested. Which Kd did it give?
A: > 200 nM

Q: For B2, which Kd is on record?
A: > 200 nM

Q: With B3 as the binder, how does the Kd read?
A: > 200 nM

Q: With B4 as the binder, how does the Kd read?
A: > 200 nM

Q: For B5, which Kd is on record?
A: > 200 nM

Q: How did the Kd turn out when B6 was run?
A: > 200 nM

Q: With B7 as the binder, how does the Kd read?
A: > 200 nM

The binders below were run against T1, human B7H3 (CD276) on the cell surface (assay: flow cytometry titration on A375 cells (B7H3+); column head 'Affinity B7H3' (apparent)).
Method: as §1, §2

Q: B1 was tested. Which Kd did it give?
A: 0.368 nM

Q: For B2, which Kd is on record?
A: 0.375 nM

Q: B3 was tested. Which Kd did it give?
A: 0.379 nM

Q: With B4 as the binder, how does the Kd read?
A: 0.395 nM

Q: For B5, which Kd is on record?
A: 0.523 nM

Q: How did the Kd turn out when B6 was run?
A: 0.477 nM

Q: B7 was tested. Which Kd did it give?
A: 0.539 nM
